Experimental data as given in publication PMC9114490.

Molecular target: Purified human C1q, P02745;P02746;P02747
Test: FACS-based C1q binding assay
Conditions: for response: read off a plot

Substance | EC50 | response (parent: est. 42000) | further results
4A8 Parental E345R; E430G | 26.1 nM | – | response (parent: est. 65000): 750000 MFI
EY6A Parental E345R; E430G | 42.1 nM | – | response (parent: est. 75000): 830000 MFI
REGN10933 Parental E345R; E430G | 4 nM | 800000 MFI | –
REGN10987 Parental E345R; E430G | 10.5 nM | – | response (parent: est. 85000): 830000 MFI
S230 parental IgG1 E345R; E430G | – | – | response (parent: est. 30000): 50000 MFI
S309 parental IgG1 E345R; E430G | 10 nM | 800000 MFI | –
